Columns and labels:
[1] = biological target: Recombinant soluble trimeric human BAFF (furin-cleaved human BAFF 134-285) (human, UniProt Q9Y275 134-285); experiment: cell-based or functional assay
[2] = biological target: Recombinant soluble 60-mer human BAFF (His-HuBAFF 134-285) (human, UniProt Q9Y275 134-285); experiment: cell-based or functional assay

B1: 436H6A9 (antibody, V domains shown)
VH: QLQQSGPELVKPGASVKISCKASGYTFTDNFINWVKQRPGQGLEWIGWISPGSGNTKNNEKFKGKATVTVDTSSSTAYMQLSSLTSEDSAVYFCARGIIYYYDGTYPYALDYWGQGTSVTVSS
VL: DIVLTQSPASLGVSLGQRATISCRATKGVTKSGYSYIHWYQQKPGQPPKLLIYLASNLQSGVPARFSGSGSGTDFTLNIHPVEEEDAATYYCQHSRELPLTFGAGTKLELK
[1]
  Soluble trimeric huBAFF (50 pM) Neutralization IC50: 26 pM
  Soluble trimeric huBAFF (50 pM) Neutralization IC90: 266 pM
[2]
  Soluble 60-mer huBAFF (4 pM) Neutralization IC50: 10 pM
  Soluble 60-mer huBAFF (4 pM) Neutralization IC90: 27 pM

B2: 436H2C12 (antibody, V domains shown)
VH: QVQLQQSGPELVKPGASVKLSCKASGYTFSDYTIHWVKQSPGQGLEWIGWIYPGRGNTKYNDKFKGKATMTADKSSSTAYMQLSSLTSEESAVYFCARDYRRYYAMDYWGQGTSVTVSS
VL: NIVLTQSPASLAVSLGQRATISCRASESVDNYGNSFMHWYQQKPGQPPKLLISLASNLESGVPARFSGSGSRTDFTLTIDPVEADDAATYYCQQNNEDPRTFGGGTKLEIK
[1]
  Soluble trimeric huBAFF (50 pM) Neutralization IC50: 27 pM
  Soluble trimeric huBAFF (50 pM) Neutralization IC90: 408 pM
[2]
  Soluble 60-mer huBAFF (4 pM) Neutralization IC50: 15 pM
  Soluble 60-mer huBAFF (4 pM) Neutralization IC90: 37 pM

B3: 444G1A10 (antibody, V domains shown)
VH: RVQLKESGPGLVAPSQSLFITCTVSGFSLTTYEINWVRQSPGKGLEWLGVIWTGGTTKYNSAFISRLSITKDNSKSLVFLKMSSLQTDDTAIYYCVREGRRYYAMDYWGQGTSVTVSS
VL: NIVLTQSPASLAVSLGQRATISCRASESVDSYGNSFMFWFQQKPGQAPKLLIFLTSNLESGVPARFSGSGSRTDFTLTIDRVEADDAATYYCQQSNEDPRTFGGGTKLEIK
[1]
  Soluble trimeric huBAFF (50 pM) Neutralization IC50: 25 pM
  Soluble trimeric huBAFF (50 pM) Neutralization IC90: 284 pM
[2]
  Soluble 60-mer huBAFF (4 pM) Neutralization IC50: 12 pM
  Soluble 60-mer huBAFF (4 pM) Neutralization IC90: 35 pM

B4: 441E6F2 (antibody, V domains shown)
VH: RVQLKESGPGLVAPSQSLFITCTVSGFSLTTYEINWVRQSPGKGLEWLGVIWTGGTTKYNSAFISRLSITKDNSKSLVFLKMSSLQTDDTAIYYCVREGRRYYAMDYWGQGTSVTVSS
VL: NIVLTQSPASLAVSLGQRATISCRTSESVDSYGNSFMFWFQQKPGQAPKLLIFLTSNLESGVPARFSGSGSRTDFTLTIDPVEADDAATYYCQQSNEDPRTFGGGTKLEIK
[1]
  Soluble trimeric huBAFF (50 pM) Neutralization IC50: 43 pM
  Soluble trimeric huBAFF (50 pM) Neutralization IC90: 293 pM
[2]
  Soluble 60-mer huBAFF (4 pM) Neutralization IC50: 16 pM
  Soluble 60-mer huBAFF (4 pM) Neutralization IC90: 37 pM

B5: 440E9D12 (antibody, V domains shown)
VH: QVRLRESGPGLVAPSQNLFITCTVSGFSLTDYEINWVRQPPGKNLEWLGVIWTGGGTKYNSVLISRLNISKDNSKRQVFFKMTSLQTDDTAIYYCVREGRRYYAMDYWGQGTSVTVSS
VL: NIVLTQSPASLPVSLGQRATMSCRASKSVDSYGTSFMHWYQHRPGQPPKLLISLASNLESGVPGRFSGSGSRTDFTLTIDPVEPDDAATYYCQQNNEDPRTFGGGTTLEIK
[1]
  Soluble trimeric huBAFF (50 pM) Neutralization IC50: 31 pM
  Soluble trimeric huBAFF (50 pM) Neutralization IC90: 259 pM
[2]
  Soluble 60-mer huBAFF (4 pM) Neutralization IC50: 11 pM
  Soluble 60-mer huBAFF (4 pM) Neutralization IC90: 31 pM

B6: 450A2A7 (antibody, V domains shown)
VH: QVQLQQSGPELVKPGASVKLSCKASGYTFTDYSIHWVKQSPGQGLEWIGWIYPGSDNTKYNDKFKGKASMTADKSSRTVYMHLSSLTSEESAVYFCARDYRRYYAMDYWGQGTSVTVSS
VL: IVLTQSSASLAVSLGQRATISCRASESVDRYGNSLMHWYQQKPGQPPKLLIYIASNLESGVPARFSGSGSRTDFTLTIDPVEADDAATYYCQQNNEDPRTFGGGTKLEIK
[1]
  Soluble trimeric huBAFF (50 pM) Neutralization IC50: 36 pM
  Soluble trimeric huBAFF (50 pM) Neutralization IC90: 602 pM
[2]
  Soluble 60-mer huBAFF (4 pM) Neutralization IC50: 24 pM
  Soluble 60-mer huBAFF (4 pM) Neutralization IC90: 130 pM

B7: 551H4D6 (antibody, V domains shown)
VH: EVQLQQSGAELVRPGASVELSCTASGFNIKNDYLHWVKQRPEQGLEWIGWIDSANDKTKYAPKFQDKATITADPSSNTAYLQLSSLTSEDTAVYYCTRVGVQDGYYVRDFDYWGQGTTLTVSS
VL: DIVLTQSPASLAVSLGQRATMSCRASESVDSYGNSFIHWYQQKPGQPPRLLIYRASNLNSGIPARFSGSGSRTDFTLTISSVEADDVATYYCHQNNEDPRTFGGGTKLEIK
[1]
  Soluble trimeric huBAFF (50 pM) Neutralization IC50: 110 pM
  Soluble trimeric huBAFF (50 pM) Neutralization IC90: 257 pM
[2]
  Soluble 60-mer huBAFF (4 pM) Neutralization IC50: 234 pM
  Soluble 60-mer huBAFF (4 pM) Neutralization IC90: 1980 pM

B8: 435A6B3 (antibody, V domains shown)
VH: EVQLQQSGPELVKPGASMKMSCKASGYTFTSYVMHWMKQKPGQGLEWIGYLNPNNDGTKYNEKFKGKATLTSDKSSSTAYMELSSLTSEDSAVYYCARGDYSNYFYWYFDVWGAGTTVSVSS
VL: DIKMTPSPSSMYASLGERVTITCKASQDINRYLSWFQQKPGKSPKTLIYRANRLVDGVPSRFSGSGSGQDYSLTISSLEYEDMGIYYCLQYDEFPYTFGGGTKLEIK
[1]
  Soluble trimeric huBAFF (50 pM) Neutralization IC50: 23 pM
  Soluble trimeric huBAFF (50 pM) Neutralization IC90: 294 pM
[2]
  Soluble 60-mer huBAFF (4 pM) Neutralization IC50: 10 pM
  Soluble 60-mer huBAFF (4 pM) Neutralization IC90: 26 pM

B9: 443C11A12 (antibody, V domains shown)
VH: EVQLQQSGPELVKPGASVKMSCTASGYTFTSYVIHWMKQKPGQGLEWIGYLHRNNDGTKYNEKFKVKATLTSDESSNTAYMELSSLTSEDSAVYYCARGDYSNYFYWYFDVWGAGTTVSVSS
VL: DIKMTPSPSSMYASLGERVTITCKASQDINSYLSWFQQKPGKSPKTLIYRANRLVDGVPSRFSGSGSGQDYSLTISSLEYEDMGIYYCLQYDEFPYTSGGGTKLEIK
[1]
  Soluble trimeric huBAFF (50 pM) Neutralization IC50: 33 pM
  Soluble trimeric huBAFF (50 pM) Neutralization IC90: 309 pM
[2]
  Soluble 60-mer huBAFF (4 pM) Neutralization IC50: 13 pM
  Soluble 60-mer huBAFF (4 pM) Neutralization IC90: 30 pM

B10: 560H2A7 (antibody, V domains shown)
VH: EVKLVESGGGLVQPGGSLSLSCAGSGFTFSDYYMSWVRQPPGKALEWLALIRNKAPGYTTEYSASVKGRFTISRDNSQSILYLQMNALRPEDSATYYCARVLRRADCLDYWGQGTALTVSS
VL: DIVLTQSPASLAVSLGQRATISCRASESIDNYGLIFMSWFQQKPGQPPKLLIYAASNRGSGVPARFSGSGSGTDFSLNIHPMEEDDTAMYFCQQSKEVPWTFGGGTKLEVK
[1]
  Soluble trimeric huBAFF (50 pM) Neutralization IC50: 35 pM
  Soluble trimeric huBAFF (50 pM) Neutralization IC90: 324 pM
[2]
  Soluble 60-mer huBAFF (4 pM) Neutralization IC50: 13 pM
  Soluble 60-mer huBAFF (4 pM) Neutralization IC90: 30 pM

B11: 27I21-3C7 (antibody, V domains shown)
VH: QVQLQQSGPELVRPGTSVKISCKAPGYIFTSHWMQWVRQRPGQGLEWIGDIFPGSGTTDYNEKFKDKATVTVDRSSSSAYMQFNSLTSEDSAVYFCASGAFDYWGQGTTLTVSS
VL: DIQMTQSPSSLSASLGERVSLTCRASQDIGNRLNWLQQAPDGTIKRLIYATSSLDSGVPKRFSGSRSGSDYSLTISSLESEDFVDYYCLQYASYPFTFGTGTKLEIK
[1]
  Soluble trimeric huBAFF (50 pM) Neutralization IC50: 55 pM
  Soluble trimeric huBAFF (50 pM) Neutralization IC90: 326 pM
[2]
  Soluble 60-mer huBAFF (4 pM) Neutralization IC50: 11 pM
  Soluble 60-mer huBAFF (4 pM) Neutralization IC90: 33 pM

B12: 606H7F8 (antibody, V domains shown)
VH: VQLVESGGGLVKPGGSLKLSCAASGFTFSSYDMSWVRQTPEKRLEWVAAINSYGVNTYYPDTVKDRFTISRDNAKNTLYLQMSSLRSEDTALYYCARLLIGPYYYAMDYWGQGTSVTVSS
VL: DIQMTQSPASLSASVGETVTITCRASGNIHNYLAWYQQKQGKSPQLLVYNAKTLADGVPSRFSGSGSGTQFSLKINSLQPEDFGSYYCQHFWSTPYTFGGGTKLEIK
[1]
  Soluble trimeric huBAFF (50 pM) Neutralization IC50: 29 pM
  Soluble trimeric huBAFF (50 pM) Neutralization IC90: 378 pM
[2]
  Soluble 60-mer huBAFF (4 pM) Neutralization IC50: 12 pM
  Soluble 60-mer huBAFF (4 pM) Neutralization IC90: 44 pM

B13: 317H2A6 (antibody, V domains shown)
VH: QVTLKESGPGILQPSQTLSLTCSFSGFSLRTFGMGVGWIRQPSGKGLEWLAHIWWNGDKYYDPALKSRLTISKDTSENRVFLNIANVDTTDTAPYYCVRIGPSITTVAEGFAYWGQGTLVTVSA
VL: DIVMTQSQKFLSTTIGDRVSITCKASQNVGSAVVWYQQKPGQPPKLLITSASNRYSGVPDRFTGSGSGTDFTLTVSNVQSVDLADYFCQQYSNYPLTFGAGTKLELK
[1]
  Soluble trimeric huBAFF (50 pM) Neutralization IC50: 97 pM
  Soluble trimeric huBAFF (50 pM) Neutralization IC90: 327 pM
[2]
  Soluble 60-mer huBAFF (4 pM) Neutralization IC50: 4 pM
  Soluble 60-mer huBAFF (4 pM) Neutralization IC90: 13 pM

B14: 537G7A6 (antibody, V domains shown)
VH: QVQLKESGPGLVAPSQSLSITCTVSGFSLSRYSVHWIRQSPGKGLEWLGMIWGGGNTDYNSGLKSRLSISKDNSKSQVFLKMNSLENDDTAMYYCASPSLYYYDVAWFPYWGQGTLVTVSA
VL: DIVLTQSPASLAVSVGQRATVSCRVSESVDRYADSFMHWYQQKPGQPPKLLIYLASNLESGVPARFSGSGSRTDFTLTIDPVEADDAATYYCQQNKEDPYTFGGGTKLELK
[1]
  Soluble trimeric huBAFF (50 pM) Neutralization IC50: 28 pM
  Soluble trimeric huBAFF (50 pM) Neutralization IC90: 329 pM
[2]
  Soluble 60-mer huBAFF (4 pM) Neutralization IC50: 13 pM
  Soluble 60-mer huBAFF (4 pM) Neutralization IC90: 39 pM

B15: 319B8A12 (antibody, V domains shown)
VH: KVTLKESGPGILQPSQTLSLTCSFSGFSLRTFGMGVGWIRQPSGKGLEWLAHIWWNDEKYYNPDLKSRLTVSKDSSKNQVFLTIANVDTSDTAPYYCTRVGPSISTVAEGFPYWGQGTLVTVSA
VL: DIVMTQSQKFVSTRVGDRVSITCKASQNVGAAVVWYQQKSGQPPKLLIRSASNRYIGVPDRFTGSGSGTDFTLTVSDVQSGDLADYFCQQYSNYPLTFGAGTKLELTR
[1]
  Soluble trimeric huBAFF (50 pM) Neutralization IC50: 91 pM
  Soluble trimeric huBAFF (50 pM) Neutralization IC90: 331 pM
[2]
  Soluble 60-mer huBAFF (4 pM) Neutralization IC50: 8 pM
  Soluble 60-mer huBAFF (4 pM) Neutralization IC90: 24 pM

— patent US20190309034A1 (Boehringer Ingelheim, published 2019)
